In assay [1] the target is T1, PAR2-3: P157: 1-377, glycosylated, pBacMamHisStrepII, full length (human, UniProt P55085 26-377).
T1 construct: detergent-solubilised analyte in SPR, or on infected cells in flow cytometry; also called FL-N PAR2 StaR; FL-N StaR; not shown: C-terminal StrepII and deca-histidine tags
T1 sequence: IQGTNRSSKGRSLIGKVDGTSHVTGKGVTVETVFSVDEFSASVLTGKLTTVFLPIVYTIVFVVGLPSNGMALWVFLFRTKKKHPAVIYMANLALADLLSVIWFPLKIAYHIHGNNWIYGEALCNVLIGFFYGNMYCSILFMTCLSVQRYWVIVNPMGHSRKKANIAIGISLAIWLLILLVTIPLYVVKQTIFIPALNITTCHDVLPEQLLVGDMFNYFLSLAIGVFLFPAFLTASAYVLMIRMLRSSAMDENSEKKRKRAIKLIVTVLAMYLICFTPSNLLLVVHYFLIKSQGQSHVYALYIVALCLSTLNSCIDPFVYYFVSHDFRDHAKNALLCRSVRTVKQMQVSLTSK
Description: SPR (table head: Octet); IgG captured via Fc, FL-N PAR2 StaR as analyte; koff at the lower assay limit. As to the method:
(§1) For all eleven IgG1f_AEASS, affinities to human PAR2 were determined by SPR. The IgGs were captured via their Fc-fragment and detergent (LMNG/CHS) solubilised FL-N PAR2 StaR was used as analyte in solution. 50 mM HEPES pH 7.5, 150 mM NaCl, 0.02% LMNG was used as assay buffer. To minimize artefacts introduced by non-specific interaction of FL-N PAR2 StaR with the sensors, the CM3 sensors were used as basis to immobilize a high density of anti-hu-Fc capture antibody (BR-1008-39, GE Healthcare). IgGs were captured with relatively high levels of approximately 500 RU to achieve a higher ratio of specific to non-specific binding (while still maintaining conditions suitable for kinetic characterization). Affinities ranged from 6.5 nM to 130 pM. The koff values of the best candidates were at the lower assay limit. A minimum koff of 2.00E-05 s⁻¹ was reported (corresponding to 3% dissociation in 1500 s).
(In general: Biolayer interferometry detects binding as a change in optical thickness at a sensor tip.)

Assay [2] concerns the target T2, Soluble PAR2 StaR (recombinant human PAR2 StaR protein in detergent, construct not stated) (human, UniProt P55085 37-377, limits assumed).
T2 construct: also called purified PAR2
T2 sequence: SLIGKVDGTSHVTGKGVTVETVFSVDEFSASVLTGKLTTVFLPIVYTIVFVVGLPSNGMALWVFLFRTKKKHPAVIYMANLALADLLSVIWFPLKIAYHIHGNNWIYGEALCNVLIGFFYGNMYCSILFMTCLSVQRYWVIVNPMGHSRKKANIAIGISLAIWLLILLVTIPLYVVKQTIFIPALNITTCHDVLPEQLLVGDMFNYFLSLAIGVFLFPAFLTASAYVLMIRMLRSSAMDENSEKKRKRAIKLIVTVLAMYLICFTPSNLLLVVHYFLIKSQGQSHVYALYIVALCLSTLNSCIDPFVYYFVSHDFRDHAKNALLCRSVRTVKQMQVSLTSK
Description: SPR Biacore T200; IgG captured, PAR2 as analyte; 25 C, 30 min dissociation. As to the method: (§2) The assay of PAR2 interaction with anti-PAR2 antibodies was carried out using a Biacore T200 instrument (GE Healthcare). Anti-human IgG antibody (Human Antibody Capture Kit, GE Healthcare) was immobilised by amine coupling in the target and reference flow cells of sensor chip CM3 (GE Healthcare) to a surface density of 2700 to 3000 resonance units (RU). Immobilisation was carried out at 25° C. in HBS-EP+buffer (GE Healthcare). The buffer was then changed to 50 mM HEPES, pH 7.5, 150 mM NaCl, 0.02% LMNG, 0.002% CHS for the PAR2-antibody interaction assay which was carried out at either 25 or 37° C. Each cycle of the assay began with antibody capture in the target flow cell to a level of 400 to 450 RU. PAR2 was then injected over target and reference flow cells at three concentrations, 5 min each, followed by 30-min dissociation. The surface was then regenerated with a solution provided in the kit (Human Antibody Capture Kit, GE Healthcare). With every antibody tested the first cycle was a blank (three injections of the running buffer) and the second a series of 50, 100, and 200 nM PAR2 injections.

The target in assay [3] is T2, Soluble PAR2 StaR (recombinant human …). Kind of assay: SPR Biacore T200; IgG captured, PAR2 as analyte; 25 C, 90 min dissociation. A general note: In SPR one partner is held on a chip, and binding of the other changes the refractive index at the surface.
For assay [4] the target is unchanged. Kind of assay: SPR Biacore T200; IgG captured, PAR2 as analyte; 37 C, 30 min dissociation. How it is done: as §2
Assay [5] addresses T1, PAR2-3: P157: 1-377, glycosylated, …. Kind of assay: SPR (table head: Octet); IgG captured via Fc, detergent solubilised FL-N PAR2 StaR as analyte. As to the method:
as §1

The term Kd denotes the equilibrium constant for the complex coming apart. Broadly, the koff is a measure of how fast the partners let go of each other. The kon is the second-order rate constant of association. For orientation: t½ means the time needed for the level to fall by half in the phase considered.

B1: Y022870 (antibody, human IgG1, lambda, V domains shown)
VH: EVQLLESGGGLVQPGGSLRLSCAASGFSFSRYAITWVRQAPGKGLEWVSTISALGLETYYAESVRGRFTISRDNSKNTLYLQMNSLRAEDTAVYYCARGFHYTHSGKRYYYPFDIWGQGTLVTVSS
VL: QSALTQPASVSGSPGQSITISCTGTSSDVGSYNLVSWYQQHPGKAPKLMIYEGSKRPSGVSNRFSGSKSGNTASLTISGLQAEDEADYYCSQYATFIAFAVFGGGTKLTVLG
notes: also called Y22870
Take B1: the dissociation constant (Kd) in assay [1] is not above 0.21 nM; in assay [2] it was 0.43 nM; in assay [3], 0.21 nM; in assay [4], 0.45 nM. The koff in assay [2] came to 1.2e-05 s⁻¹; in assay [3], 7e-06 s⁻¹; in assay [4] it was 1.9e-05 s⁻¹. Also, the kon in assay [2] stood at 28000 M⁻¹ s⁻¹; in assay [3], 34000 M⁻¹ s⁻¹; in assay [4], 41000 M⁻¹ s⁻¹; in assay [5] it was 96000 M⁻¹ s⁻¹. In addition, the figures for the “t½” value in assay [2], in assay [3] and in assay [4] were 16.1 h, 27.6 h and 10.3 h, respectively.

B2: Y022877 (antibody, human IgG1, lambda, V domains shown)
VH: EVQLLESGGGLVQPGGSLRLSCAASGFTFSRYAMTWVRQAPGKGLEWVSTISGLGQEAYYAGSVKGRFTISRDNSKNTLYLQMNSLRAEDTAVYYCARGFHYTHSGKRYYYPFDIWGQGTLVTVSS
VL: QSALTQPASVSGSPGQSITISCTGTSSDVGSYNLVSWYQQHPGKAPKLMIYEGSKRPSGVSNRFSGSKSGNTASLTISGLQAEDEADYYCSQYATFIAFAVFGGGTKLTVLG
notes: also called Y22877
Consider B2, for which the equilibrium dissociation constant (Kd) in assay [1] turned out to be 0.29 nM; in assay [2], 0.23 nM; in assay [3] it was 0.3 nM; in assay [4] it was 0.55 nM. The koff in assay [2] amounted to 5.1e-06 s⁻¹; in assay [3] it was 8e-06 s⁻¹; in assay [4] it was 1.7e-05 s⁻¹. Moreover, the on-rate (kon) in assay [2] was 22000 M⁻¹ s⁻¹; in assay [3], 27000 M⁻¹ s⁻¹; in assay [4] it was 31000 M⁻¹ s⁻¹; in assay [5], 68000 M⁻¹ s⁻¹. The “t½” value in assay [2] was 37.9 h; in assay [3], 24.1 h; in assay [4], 11.5 h.

B3: Y022883 (antibody, human IgG1, lambda, V domains shown)
VH: EVQLLESGGGLVQPGGSLRLSCAASGFSFTRYAISWVRQAPGKGLEWVSVISGHGSEANYAESVKGRFTISRDNSKNTLYLQMNSLRAEDTAVYYCARGFHYTHSGKRYYYPFDIWGQGTLVTVSS
VL: QSALTQPASVSGSPGQSITISCTGTSSDVGSYNLVSWYQQHPGKAPKLMIYEGSKRPSGVSNRFSGSKSGNTASLTISGLQAEDEADYYCSQYATFIAFAVFGGGTKLTVLG
notes: also called Y22883; Y02283
In the case of B3, the equilibrium dissociation constant (Kd) in assay [1] is 0.14 nM; in assay [2], 0.2 nM; in assay [3], 0.4 nM; in assay [4], 0.65 nM. Also, the koff in assay [2] is 8.1e-06 s⁻¹; in assay [3], 1.2e-05 s⁻¹; in assay [4], 2.3e-05 s⁻¹. The kon in assay [2] is 40000 M⁻¹ s⁻¹; in assay [3] it was 30000 M⁻¹ s⁻¹; in assay [4], 36000 M⁻¹ s⁻¹; in assay [5], 140000 M⁻¹ s⁻¹. The “t½” value is 23.7 h in assay [2], 16.2 h in assay [3] and 8.3 h in assay [4].

(Values after patent US20250313621A1 (NXERA PHARMA UK, published 2025).)
